Measured values reported in patent US6967029 (Amgen, dated 2005).

Target: T1, human SCF receptor, native, on cell membranes (human, UniProt P10721 26-976)
T1 construct: whole, on cells; also called human SCF receptors on OCIM1 cells (isolated OCIM1 plasma membrane); SCF receptors on leukemic blasts
Assay: radioreceptor assay: competition with 125I-huSCF on OCIM1 plasma membrane
Experimental: The SCF radioreceptor assay was conducted as follows with all steps being performed on ice. […] A dilution of isolated OCIM1 plasma membrane in 50 ul buffer known to give 20% specific binding was then added to each tube. Tubes were vortexed and allowed to incubate for 24 hrs at 4° C. […] All tubes were oriented with lid opening tabs straight up. Supernatants were carefully aspirated by a sliding a 21 gauge needle down the side opposite the pellet (hinge side of tube) to bottom of each tube. Tubes were counted in gamma counter for 1 min. each.

B1: E. coli derived human SCF^1-130 analog (ligand)
chain: EGICRNRVTNNVKDVTKLVANLPKDYMITLKYVPGMDVLPSHCWISEMVVQLSDSLTDLLDKFSNISEGLSNYSIIDKLVNIVDDLVECVKENSSKDLKKSFKSPEPRLFTPEEFFRIFNRSIDAFKDFV
notes: Plasmid encodes an initiating methionine before residue 1; Dimeric in solution by gel filtration
specific activity in the radioreceptor assay relative to SCF^1-164: ~50 % of the value for SCF^1-164
